Measured values: article PMC9279676, “ERK2 MAP kinase regulates SUFU binding by multisite phosphorylation of GLI1” (Life Science Alliance, 2022)

B1: GLI1_(1-232), wild type, 35S-radiolabeled [modified: [35S]-methionine label; [35S]-methionine label] [human] / GST-SUFU (fusion of GST to full-length human SUFU) [human] (parent)
chain 1: MFNSMTPPPISSYGEPCCLRPLPSQGAPSVGTEGLSGPPFCHQANLMSGPHSYGPARETNSCTEGPLFSSPRSAVKLTKKRALSISPLSDASLDLQTVIRTSPSSLVAFINSRCTSPGGSYGHLSIGTMSPSLGFPAQMNHQKGPSPSFGVQPCGPHDSARGGMIPHPQSRGPFPTCQLKSELDMLVGKCREEPLEGDMSSPNSTGIQDPLLGMLDGREDLEREEKREPESV
chain 2: MAELRPSGAPGPTAPPAPGPTAPPAFASLFPPGLHAIYGECRRLYPDQPNPLQVTAIVKYWLGGPDPLDYVSMYRNVGSPSANIPEHWHYISFGLSDLYGDNRVHEFTGTDGPSGFGFELTFRLKRETGESAPPTWPAELMQGLARYVFQSENTFCSGDHVSWHSPLDNSESRIQHMLLTEDPQMQPVQTPFGVVTFLQIVGVCTEELHSAQQWNGQGILELLRTVPIAGGPWLITDMRRGETIFEIDPHLQERVDKGIETDGSNLSGVSAKCAWDDLSRPPEDDEDSRSICIGTQPRRLSGKDTEQIRETLRRGLEINSKPVLPPINPQRQNGLAHDRAPSRKDSLESDSSTAIIPHELIRTRQLESVHLKFNQESGALIPLCLRGRLLHGRHFTYKSITGDMAITFVSTGVEGAFATEEHPYAAHGPWLQILLTEEFVEKMLEDLEDLTSPEEFKLPKEYSWPEKKLKVSILPDVVFDSPLH

Variants of: B1
Test: GST-SUFU pull-down binding assay with 35S-radiolabeled in vitro-translated GLI1
Conditions: 10 nM GST-SUFU, parent: 55, read off a plot

| response | Variant |
| --- | --- |
| 33 % GLI1 Bound | chain 1 MFNSMTPPPISSYGEPCCLRPLPSQGAPSVGTEGLSGPPFCHQANLMSGPHSYGPARETNSCTEGPLFSSPRSAVKLTKKRALSISPLSDASLDLQTVIRTSPSSLVAFINSRCTSPGGSYGHLSIGTMEPSLGFPAQMNHQKGPSPSFGVQPCGPHDSARGGMIPHPQSRGPFPTCQLKSELDMLVGKCREEPLEGDMSSPNSTGIQDPLLGMLDGREDLEREEKREPESV [chain 1 S130E] |

Same assay, conditions: 20 nM GST-SUFU, parent: 67, read off a plot

| response | Variant |
| --- | --- |
| 52 % GLI1 Bound | chain 1 MFNSMTPPPISSYGEPCCLRPLPSQGAPSVGTEGLSGPPFCHQANLMSGPHSYGPARETNSCTEGPLFSSPRSAVKLTKKRALSISPLSDASLDLQTVIRTSPSSLVAFINSRCTSPGGSYGHLSIGTMEPSLGFPAQMNHQKGPSPSFGVQPCGPHDSARGGMIPHPQSRGPFPTCQLKSELDMLVGKCREEPLEGDMSSPNSTGIQDPLLGMLDGREDLEREEKREPESV [chain 1 S130E] |

Same assay, conditions: 40 nM GST-SUFU, parent: 80, read off a plot

| response | Variant |
| --- | --- |
| 61 % GLI1 Bound | chain 1 MFNSMTPPPISSYGEPCCLRPLPSQGAPSVGTEGLSGPPFCHQANLMSGPHSYGPARETNSCTEGPLFSSPRSAVKLTKKRALSISPLSDASLDLQTVIRTSPSSLVAFINSRCTSPGGSYGHLSIGTMEPSLGFPAQMNHQKGPSPSFGVQPCGPHDSARGGMIPHPQSRGPFPTCQLKSELDMLVGKCREEPLEGDMSSPNSTGIQDPLLGMLDGREDLEREEKREPESV [chain 1 S130E] |

Same assay, conditions: 80 nM GST-SUFU, parent: 95, read off a plot

| response | Variant |
| --- | --- |
| 72 % GLI1 Bound | chain 1 MFNSMTPPPISSYGEPCCLRPLPSQGAPSVGTEGLSGPPFCHQANLMSGPHSYGPARETNSCTEGPLFSSPRSAVKLTKKRALSISPLSDASLDLQTVIRTSPSSLVAFINSRCTSPGGSYGHLSIGTMEPSLGFPAQMNHQKGPSPSFGVQPCGPHDSARGGMIPHPQSRGPFPTCQLKSELDMLVGKCREEPLEGDMSSPNSTGIQDPLLGMLDGREDLEREEKREPESV [chain 1 S130E] |
